Reference: patent US20040072188A1 (Biogen, published 2004)

What was measured:
[1] = biological target: T1, human TACI, full length, on transfected 293EBNA cells (CA336) (human, UniProt O14836 1-293); assay: FACS on 293EBNA cells co-transfected with human TACI and GFP, 1 ug/ml myc-APRIL
T1 construct: whole, on cells; also called huTACI
T1 sequence (looked up): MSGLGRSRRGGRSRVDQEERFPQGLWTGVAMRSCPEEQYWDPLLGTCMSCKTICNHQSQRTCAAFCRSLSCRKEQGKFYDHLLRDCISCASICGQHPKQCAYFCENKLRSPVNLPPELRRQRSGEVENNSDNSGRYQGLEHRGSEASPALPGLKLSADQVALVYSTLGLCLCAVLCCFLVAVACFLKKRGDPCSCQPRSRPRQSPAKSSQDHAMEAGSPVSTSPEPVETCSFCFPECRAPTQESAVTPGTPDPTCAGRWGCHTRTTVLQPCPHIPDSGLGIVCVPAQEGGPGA
From the text: (§1) At 18-20 hr post-transfection, cells were detached, counted, and stained for FACS analysis similar to Example 5 with the following modifications. […] The cells were again washed, fixed with paraformaldehyde, and analyzed by FACS for GFP and PE positive cells.

[2] = biological target: T2, human BAFF-R (JST576), full length, on cells (human, UniProt Q96RJ3 1-184); assay: FACS on 293EBNA cells co-transfected with pJST576 and GFP reporter; anti-murine APRIL mAb, biotinylated anti-rat IgG2b, SAV-PE
T2 construct: also called pJST576 transfected cells; huBAFF-R
T2 sequence: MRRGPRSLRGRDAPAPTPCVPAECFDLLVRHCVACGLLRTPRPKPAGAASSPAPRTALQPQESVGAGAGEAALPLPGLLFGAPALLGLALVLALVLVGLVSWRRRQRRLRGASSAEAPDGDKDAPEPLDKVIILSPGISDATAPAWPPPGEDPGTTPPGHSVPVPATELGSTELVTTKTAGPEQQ
From the text: as §1

B1: murine recombinant soluble myc-APRIL (ligand, UniProt Q9D777 96-241, looked up)
chain: AVLTQKHKKKHSVLHLVPVNITSKADSDVTEVMWQPVLRRGRGLEAQGDIVRVWDTGIYLLYSQVLFHDVTFTMGQVVSREGQGRRETLFRCIRSMPSDPDRAYNSCYSAGVFHLHQGDIITVKIPRANAKLSLSPHGTFLGFVKL
notes: also called myc-muAPRIL; murine myc-APRIL; not shown: myc tag
Question: Does B1 bind [1]?
Answer: Result: binds

Question: Does B1 bind [2]?
Answer: Result: no binding (tested: 1 ug/ml)
